Residue numbers refer to the chain shown, from its start.
B1: C3A_01 (other)
chain: CPPCPAPELLGGPSVFLFPPKPKDTLMISRTPEVTCVVVDVSHEDPEVKFNWYVDGVEVHNAKTKPREEQYNSTYRVVSVLTVLHQDWLDGKEYKCKVSNKALPVPIEKTISKAKGQPREPQVYTLPPSRDELTKNQVSLTCLVKGFYPSDIAVEWESNGQPENNYKTTPPVLDSDGSFFLYSKLTVDKSRWQQGNVFSCSVMHEALHYHYTQKSLSLSPGK
notes: EU numbering
B2: C3A_07 (other)
chain: B1 chain with T82P, D90N, V105T, A153V, Y209N
notes: EU numbering
B3: C3A_08 (other)
chain: B1 chain with V39E, D90N, V105A, P127S, A153V, Y209S
notes: EU numbering
B4: C3A_15 (other)
chain: B1 chain with V39E, T82A, D90N, V105A, A153V, Y209N
notes: EU numbering
B5: C3A_21 (other)
chain: B1 chain with S175P
notes: EU numbering
B6: C3A_24 (other)
chain: B1 chain with T82P, D90N, V105A, N164T, D176G, N196T
notes: EU numbering
B7: C3A_31 (other)
chain: B1 chain with N164K, D176G
notes: EU numbering
B8: C3A_39 (other)
chain: B1 chain with A6V, D90N, V105A, Q117E
notes: EU numbering
B9: C3A_42 (other)
chain: B1 chain with N164K, V172M
notes: EU numbering
B10: C3A_43 (other)
chain: B1 chain with V105A, R191G
notes: EU numbering
B11: C4A_01 (other)
chain: B1 chain with V105A, Q137R, N164K
notes: EU numbering
B12: C4A_06 (other)
chain: B1 chain with P5T
notes: EU numbering
B13: C4A_15 (other)
chain: B1 chain with E8D, V105A
notes: EU numbering
B14: C4A_18 (other)
chain: B1 chain with A153V
notes: EU numbering
B15: C4A_24 (other)
chain: B1 chain with L84P
notes: EU numbering
B16: C4A_25 (other)
chain: B1 chain with V172M
notes: EU numbering
B17: C4A_27 (other)
chain: B1 chain with V39A, T74A, D90N, V105A, A153V, E157G
notes: EU numbering
B18: C4A_28 (other)
chain: B1 chain with V39E, D90N, V105A, A153V
notes: EU numbering
B19: C4A_29 (other)
chain: B1 chain with T82P, V105A, N136S, Q137R
notes: EU numbering
B20: C4A_32 (other)
chain: B1 chain with V39E, V105A, A153V, Y209N
notes: EU numbering
B21: C4A_36 (other)
chain: B1 chain with K95T, V105A
notes: EU numbering
B22: C4A_41 (other)
chain: B1 chain with Q137E
notes: EU numbering
B23: C4A_45 (other)
chain: B1 chain with K21R, H60Y
notes: EU numbering
B24: C5A_03 (other)
chain: B1 chain with V39A, V105A
notes: EU numbering
B25: C5A_12 (other)
chain: B1 chain with V105A, Q137E, N164K
notes: EU numbering
B26: C5A_15 (other)
chain: B1 chain with V78A, E157V
notes: EU numbering
B27: C5A_19 (other)
chain: B1 chain with V39A, V80A
notes: EU numbering
B28: C5A_20 (other)
chain: B1 chain with V105A, S190D
notes: EU numbering
B29: C5A_41 (other)
chain: B1 chain with A102T, Q137R
notes: EU numbering
B30: C5A_44 (other)
chain: B1 chain with V105A, N164K
notes: EU numbering
B31: C5A_50 (other)
chain: B1 chain with D45N, V105A
notes: EU numbering
B32: C5A_58 (other)
chain: B1 chain with V39E, D90N, V105A, A153V, P171L, Y209S
notes: EU numbering
B33: C5A_63 (other)
chain: B1 chain with S73N
notes: EU numbering
B34: C5A_75 (other)
chain: B1 chain with T82N, V105A
notes: EU numbering
B35: C6A_04 (other)
chain: B1 chain with D90N, V105A, Q117R, E157V
notes: EU numbering
B36: C6A_05 (other)
chain: B1 chain with T82A
notes: EU numbering
B37: C6A_35 (other)
chain: B1 chain with T25A
notes: EU numbering
B38: C6A_36 (other)
chain: B1 chain with T82P, V105A, E157G, Q194H
notes: EU numbering
B39: C7A_02 (other)
chain: B1 chain with V39E, D90N, V105A, K145R, A153V
notes: EU numbering
B40: C7A_13 (other)
chain: B1 chain with F16L, V39E, D90N, V105A, A153V, N196T
notes: EU numbering
B41: C7A_18 (other)
chain: B1 chain with V39E, D90N, V105A, A153V, K189R, N196T
notes: EU numbering
B42: C7A_22 (other)
chain: B1 chain with V105A, K109E, A153V
notes: EU numbering
B43: C7A_27 (other)
chain: B1 chain with V39E, T82N, D90N, V105A, A153V, V172M
notes: EU numbering
B44: C7A_37 (other)
chain: B1 chain with F16L, V105A, N164K
notes: EU numbering
B45: C7A_43 (other)
chain: B1 chain with V39E, T82P, D90N, V105A, A153V, P171S, Y209S
notes: EU numbering
B46: C7A_49 (other)
chain: B1 chain with T169A
notes: EU numbering
B47: C7A_68 (other)
chain: B1 chain with V39E, V105A, A153V, N165S, G195R
notes: EU numbering
B48: C7A_89 (other)
chain: B1 chain with T82P, D90N, A102T, V105A, N164T, N196T
notes: EU numbering
B49: C8A_08 (other)
chain: B1 chain with V39A
notes: EU numbering
B50: C8A_14 (other)
chain: B1 chain with V80A, D90N, V105A, Q161R
notes: EU numbering
B51: C8A_41 (other)
chain: B1 chain with V105A, E157V, H208P
notes: EU numbering

Target: T1, FcRn-p3 fusion protein (human, UniProt P55899 24-297; P61769 21-119)
T1 construct: baculovirus expressed; coated on ELISA wells; not shown: amino terminal part of bacteriophage p3 protein and CVDE protein
Test: phage ELISA pH6

Ratio/Fc-H [fold] | Binder
2.5 | B1
1.3 | B2
3 | B3
1.9 | B4
3 | B5
2.9 | B6
2.2 | B7
1.8 | B8
3.7 | B9
2.5 | B10
2.4 | B11
3.6 | B12
2.2 | B13
2.5 | B14
2.3 | B15
2.8 | B16
2.7 | B17
3.4 | B18
3.8 | B19
1.7 | B20
2.8 | B21
3.4 | B22
2.3 | B23
2.7 | B24
3.8 | B25
3.4 | B26

Ratio/Fc-H [fold] | Binder
2.9 | B27
2.6 | B28
1.3 | B29
2.7 | B30
2.3 | B31
2.8 | B32
2 | B33
2.8 | B34
2.9 | B35
1.9 | B36
1.8 | B37
3.4 | B38
2.2 | B39
2.3 | B40
2.8 | B41
1.8 | B42
2.6 | B43
2.2 | B44
3.6 | B45
1.7 | B46
3.4 | B47
2.3 | B48
2 | B49
2.4 | B50
2.7 | B51

Target: T1, FcRn-p3 fusion protein
Test: phage ELISA pH6 (est.)

Ratio/FWT [fold] | Binder
8 | B1
4.2 | B2
9.7 | B3
6 | B4
9.8 | B5
9.2 | B6
6.9 | B7
5.6 | B8
12 | B9
8.1 | B10
7.5 | B11
11.4 | B12
6.9 | B13
8.1 | B14
7.5 | B15
8.9 | B16
8.7 | B17
10.8 | B18
12 | B19
5.4 | B20
8.9 | B21
10.8 | B22
7.2 | B23
8.7 | B24
12.1 | B25
10.9 | B26

Ratio/FWT [fold] | Binder
9.3 | B27
8.4 | B28
4.3 | B29
8.7 | B30
7.3 | B31
9.1 | B32
6.3 | B33
8.9 | B34
9.4 | B35
6.2 | B36
5.7 | B37
10.9 | B38
6.9 | B39
7.4 | B40
8.9 | B41
5.7 | B42
8.2 | B43
6.9 | B44
11.5 | B45
5.3 | B46
10.9 | B47
7.4 | B48
6.4 | B49
7.6 | B50
8.8 | B51

From patent USRE46585 (LABORATOIRE FRANCAIS DU FRACTIONNEMENT ET DES …, dated 2017)
